What all share (experiment): ITC
A general note: Isothermal titration calorimetry measures the heat released or taken up as one component is titrated into another.

The target of one data set is T1, MepR(A103S) (Staphylococcus aureus, UniProt Q5Y812 1-139, A103S).
T1 sequence: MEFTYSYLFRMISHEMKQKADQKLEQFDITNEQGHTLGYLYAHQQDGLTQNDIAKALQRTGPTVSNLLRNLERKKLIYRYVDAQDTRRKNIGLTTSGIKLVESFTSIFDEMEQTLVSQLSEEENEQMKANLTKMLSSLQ

A further data set has as its target T2, MepR(F27L/F104A) (Staphylococcus aureus, UniProt Q5Y812 1-139, F27L;F104A).
T2 sequence: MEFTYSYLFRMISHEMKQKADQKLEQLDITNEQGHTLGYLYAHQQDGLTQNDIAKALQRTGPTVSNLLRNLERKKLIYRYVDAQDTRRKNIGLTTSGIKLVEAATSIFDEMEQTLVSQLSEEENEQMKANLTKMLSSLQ

For the next data set, the target named is T3, MepR(Q18A) (Staphylococcus aureus, UniProt Q5Y812 1-139, Q18A).
T3 sequence: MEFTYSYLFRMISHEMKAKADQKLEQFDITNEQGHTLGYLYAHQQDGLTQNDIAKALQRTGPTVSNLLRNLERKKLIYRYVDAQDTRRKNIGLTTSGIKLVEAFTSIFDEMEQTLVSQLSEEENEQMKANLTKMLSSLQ

A further data set addresses T4, MepR WT (Staphylococcus aureus, UniProt Q5Y812 1-139).
T4 sequence: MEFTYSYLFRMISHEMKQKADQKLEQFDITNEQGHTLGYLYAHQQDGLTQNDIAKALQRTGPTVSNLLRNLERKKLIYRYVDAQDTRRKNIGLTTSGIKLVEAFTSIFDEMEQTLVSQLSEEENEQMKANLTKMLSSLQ

Usually Kd stands for the constant that tells how readily two partners part at equilibrium. A low value points to higher affinity.

B1: mepR operator, palindromic 26-mer (dsDNA)
DNA 1: TATTTAGTTAGATATCTAACTAAATA
DNA 2: TATTTAGTTAGATATCTAACTAAATA
With B1, the Kd with MepR(A103S) was found to be 42.6 nM; with MepR(F27L/F104A) it was 32.3 nM; with MepR(Q18A), 34.1 nM; in the data set with MepR WT, 36.6 nM.

(Values after publication PMC3760248.)
